Laboratory results: article PMC9909335, “Structure-guided design of a potent Clostridioides difficile toxin A inhibitor” (Frontiers in Microbiology, 2023)

Legend:
Conditions in all cases: both partners purified
[1] = target: T1, TcdA-A2 fragment (C-terminal CROPs domain fragment of TcdA, aa 2,556–2,710 of TcdA10463) (Clostridioides difficile; paper: …); experiment: SPR
T1 construct: source: recombinant (Greco et al., 2006)

[2] = target: T2, Clostridioides difficile toxin A (TcdA), full-length (Clostridioides difficile, strain of …, UniProt P16154); experiment: ELISA
T2 construct: also called full-length TcdA

[3] = target: T1, TcdA-A2 fragment (C-terminal CROPs …); experiment: SEC-MALS

Row | Binder | T1/2 (SPR-calculated half-life, 0.693/kd) [1] | koff [1] | EC50 [2] | stoichiometry N [3]
1 | VHH A20 (A20.1) (VHH) VHH: QVQLVESGGGLAQAGGSLRLSCAASGRTFSMDPMAWFRQPPGKEREFVAAGSSTGRTTYYADSVKGRFTISRDNAKNTVYLQMNSLKPEDTAVYYCAAAPYGANWYRDEYAYWGQGTQVTVSS | 1.8 min | 0.0075 s⁻¹ | 0.194 ± 0.013 nM | 1 Ab per Ag (1:1)
2 | VHH A26 (A26.8) (VHH) VHH: QVKLEESGGGLVQAGGSLRLSCAASERTFSRYPVAWFRQAPGAEREFVAVISSTGTSTYYADSVKGRFTISRDNAKVTVYLQMNNLKREDTAVYFCAVNSQRTRLQDPNEYDYWGQGTQVTVSS | 0.6 min | 0.025 s⁻¹ | 14.6 nM | 1 Ab per Ag (1:1)
